Laboratory results taken from patent US20180298374A1 (Merck KGaA, published 2018).
Like-named read-outs stand apart in the source and are kept apart here.

Legend:
huEGFR [1] = target: T1, huEGFR (human, UniProt P00533 25-645, limits assumed, phycoerythrin conjugate (LYNX rapid RPE kit))
T1 construct: also called EGFR-PE; EGFR-phycoerythrin

huEGFR [2] = target: T1, huEGFR; remark: listed apart in the source

B1: matuzumab (antibody, V domains shown)
VH: QVQLVQSGAEVKKPGASVKVSCKASGYTFTSHWMHWVRQAPGQGLEWIGEFNPSNGRTNYNEKFKSKATMTVDTSTNTAYMELSSLRSEDTAVYYCASRDYDYDGRYFDYWGQGTLVTVSS
VL: DIQMTQSPSSLSASVGDRVTITCSASSSVTYMYWYQQKPGKAPKLLIYDTSNLASGVPSRFSGSGSGTDYTFTISSLQPEDIATYYCQQWSSHIFTFGQGTKVEIKG
Work on B1 yielded a Kd (huEGFR [1]) of 113 nM and a Kd (huEGFR [2]) of 0.34 nM.
